What was measured:
[1] = target: AtBAM2 with the Ndel1 truncation (Arabidopsis thaliana) (UniProt O65258); experiment: small-angle X-ray scattering
[2] = target: the molecule itself; experiment: small-angle X-ray scattering

**Q.** For “AtBAM2 with the Ndel1 truncation (from UniProt O65258 86-542) (domain or fragment)”, which stoichiometry N [1] is on record?
**A.** 4

B1: Arabidopsis thaliana β-amylase2 (AtBAM2), wild type (enzyme, UniProt O65258 56-542, looked up)
chain: AESTEEDRVPIDDDDDSTDQLVDEEIVHFEERDFAGTACVPVYVMLPLGVIDMNSEVVEPEELLDQLRTLKSVNVDGVMVDCWWGIVESHTPQVYNWSGYKKLFQMIRELGLKIQVVMSFHECGGNVGDDVHIQIPEWVREIGQSNPDIYFTDSAGRRNTECLTWGIDKQRVLRGRTALEVYFDYMRSFRVEFDEFFEEKIIPEIEVGLGPCGELRYPSYPAQFGWKYPGIGEFQCYDKYLMNSLKEAAEVRGHSFWGRGPDNTETYNSTPHGTGFFRDGGDYDSYYGRFFLNWYSRVLIDHGDRVLAMANLAFEGTCIAAKLSGIHWWYKTASHAAELTAGFYNSSNRDGYGPIAAMFKKHDAALNFTCVELRTLDQHEDFPEALADPEGLVWQVLNAAWDASIPVASENALPCYDREGYNKILENAKPLTDPDGRHLSCFTYLRLNPTLMESQNFKEFERFLKRMHGEAVPDLGLAPGTQETNPE
**Q.** Which “stoichiometry N” value [2] does the source give for B1 here?
**A.** 4
